Data as given in patent publication US20220002398A1 (ONCOONE RESEARCH AND DEVELOPMENT, published 2022).

B1: C0037 (Anti-oxMIF Fab fused to two anti-CD3 scFv, format: Fab-(scFv)2) (bispecific antibody)
heavy: EVQLLESGGGLVQPGGSLRLSCAASGFTFSIYSMNWVRQAPGKGLEWVSSIGSSGGTTYYADSVKGRFTISRDNSKNTLYLQMNSLRAEDTAVYYCAGSQWLYGMDVWGQGTTVTVSSASTKGPSVFPLAPSSKSTSGGTAALGCLVKDYFPEPVTVSWNSGALTSGVHTFPAVLQSSGLYSLSSVVTVPSSSLGTQTYICNVNHKPSNTKVDKRVEPKSCGGGGSGGGGSGGGGSQVQLVQSGAEVKKPGASVKVSCKASGYTFTRYTMHWVRQAPGQGLEWMGYINPSRGYTNYNQKFKDRVTLTTDKSSSTAYMELSSLRSEDTAVYYCARYYDDHYSLDYWGQGTLVTVSSGGSGGSGGSGGSGGSDIQMTQSPSSLSASVGDRVTITCSASSSVSYMNWYQQKPGKAPKRLIYDTSKLASGVPSRFSGSGSGTDFTLTISSLQPEDFATYYCQQWSSNPFTFGQGTKLEIKAAAEQKLISEEDLAAHHHHHH
light: DIQMTQSPSSLSASVGDRVTITCRSSQRIMTYLNWYQQKPGKAPKLLIFVASHSQSGVPSRFRGSGSETDFTLTISGLQPEDSATYYCQQSFWTPLTFGGGTKVEIKRTVAAPSVFIFPPSDEQLKSGTASVVCLLNNFYPREAKVQWKVDNALQSGNSQESVTEQDSKDSTYSLSSTLTLSKADYEKHKVYACEVTHQGLSSPVTKSFNRGECGGGSGGGSGGGSQVQLVQSGAEVKKPGASVKVSCKASGYTFTRYTMHWVRQAPGQGLEWMGYINPSRGYTNYNQKFKDRVTLTTDKSSSTAYMELSSLRSEDTAVYYCARYYDDHYSLDYWGQGTLVTVSSGGSGGSGGSGGSGGSDIQMTQSPSSLSASVGDRVTITCSASSSVSYMNWYQQKPGKAPKRLIYDTSKLASGVPSRFSGSGSGTDFTLTISSLQPEDFATYYCQQWSSNPFTFGQGTKLEIKASAWSHPQFEK
B2: C0006 (Anti-oxMIF/CD3 Crossmab (CH1-CL), Crossmab) (bispecific antibody, human IgG1, kappa)
light 1: DIQMTQSPSSLSASVGDRVTITCRSSQRIMTYLNWYQQKPGKAPKLLIFVASHSQSGVPSRFRGSGSETDFTLTISGLQPEDSATYYCQQSFWTPLTFGGGTKVEIKRTVAAPSVFIFPPSDEQLKSGTASVVCLLNNFYPREAKVQWKVDNALQSGNSQESVTEQDSKDSTYSLSSTLTLSKADYEKHKVYACEVTHQGLSSPVTKSFNRGEC
heavy 1: not shown
heavy 2: not shown
light 2: DIQMTQSPSSLSASVGDRVTITCSASSSVSYMNWYQQKPGKAPKRLIYDTSKLASGVPSRFSGSGSGTDFTLTISSLQPEDFATYYCQQWSSNPFTFGQGTKLEIKSSASTKGPSVFPLAPSSKSTSGGTAALGCLVKDYFPEPVTVSWNSGALTSGVHTFPAVLQSSGLYSLSSVVTVPSSSLGTQTYICNVNHKPSNTKVDKKVEPKSC
B3: C0038 (Anti-oxMIF Fab and anti-CD3 scFv fused to Fc, Fab-scFv-Fc) (bispecific antibody, human IgG1, kappa)
light: B2 light 1
heavy: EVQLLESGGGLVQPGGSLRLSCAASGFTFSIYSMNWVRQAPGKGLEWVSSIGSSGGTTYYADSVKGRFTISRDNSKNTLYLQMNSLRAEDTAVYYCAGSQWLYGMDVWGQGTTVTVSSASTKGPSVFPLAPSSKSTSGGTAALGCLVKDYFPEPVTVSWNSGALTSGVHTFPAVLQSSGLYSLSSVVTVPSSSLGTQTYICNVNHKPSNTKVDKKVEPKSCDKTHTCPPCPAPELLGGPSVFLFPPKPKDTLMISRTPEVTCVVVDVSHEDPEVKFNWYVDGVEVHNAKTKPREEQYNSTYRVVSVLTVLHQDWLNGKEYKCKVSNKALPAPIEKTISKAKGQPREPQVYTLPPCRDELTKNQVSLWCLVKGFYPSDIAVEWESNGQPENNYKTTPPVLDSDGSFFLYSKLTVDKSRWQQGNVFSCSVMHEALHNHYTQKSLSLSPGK
chain: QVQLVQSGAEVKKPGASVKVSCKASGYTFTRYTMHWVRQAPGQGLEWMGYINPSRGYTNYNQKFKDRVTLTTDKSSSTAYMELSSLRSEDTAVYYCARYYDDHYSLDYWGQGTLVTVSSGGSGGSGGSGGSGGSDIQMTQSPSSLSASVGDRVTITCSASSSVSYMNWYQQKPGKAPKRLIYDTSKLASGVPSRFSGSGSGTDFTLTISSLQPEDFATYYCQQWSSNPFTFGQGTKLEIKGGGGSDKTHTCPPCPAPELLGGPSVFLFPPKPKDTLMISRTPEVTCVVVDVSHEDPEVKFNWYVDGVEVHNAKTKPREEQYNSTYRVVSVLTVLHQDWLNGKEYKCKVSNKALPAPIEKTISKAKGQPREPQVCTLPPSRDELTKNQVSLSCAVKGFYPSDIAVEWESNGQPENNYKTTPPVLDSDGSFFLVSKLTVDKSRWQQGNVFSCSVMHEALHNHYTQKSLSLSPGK
B4: C0036 (Anti-oxMIF Fab fused to anti-CD3 scFv (HC); format: Fab-scFv) (bispecific antibody)
heavy: B1 heavy
light: B2 light 1
B5: C0007 (Full anti-oxMIF IgG with anti-CD3 scFv fused to heavy chain, v IgG1-scFv fusion) (bispecific antibody)
heavy: not shown
light: B2 light 1
B6: C0039 (Full anti-oxMIF IgG with anti-CD3 scFv fused to light chain, IgG(lc)-scFv) (bispecific antibody)
heavy: not shown
light: DIQMTQSPSSLSASVGDRVTITCRSSQRIMTYLNWYQQKPGKAPKLLIFVASHSQSGVPSRFRGSGSETDFTLTISGLQPEDSATYYCQQSFWTPLTFGGGTKVEIKRTVAAPSVFIFPPSDEQLKSGTASVVCLLNNFYPREAKVQWKVDNALQSGNSQESVTEQDSKDSTYSLSSTLTLSKADYEKHKVYACEVTHQGLSSPVTKSFNRGECGGGGSGGGGSGGGGSQVQLVQSGAEVKKPGASVKVSCKASGYTFTRYTMHWVRQAPGQGLEWMGYINPSRGYTNYNQKFKDRVTLTTDKSSSTAYMELSSLRSEDTAVYYCARYYDDHYSLDYWGQGTLVTVSSGGSGGSGGSGGSGGSDIQMTQSPSSLSASVGDRVTITCSASSSVSYMNWYQQKPGKAPKRLIYDTSKLASGVPSRFSGSGSGTDFTLTISSLQPEDFATYYCQQWSSNPFTFGQGTKLEIK
notes: also called IgG(Ic)-scFv
B7: C0033 (Variable domains of anti-oxMIF and anti-CD3 fused in a row (VL1-VH2-VL2-VH1, TandAb)) (bispecific antibody)
chain: DIQMTQSPSSLSASVGDRVTITCSASSSVSYMNWYQQKPGKAPKRLIYDTSKLASGVPSRFSGSGSGTDFTLTISSLQPEDFATYYCQQWSSNPFTFGQGTKLEIKGGSGGSEVQLLESGGGLVQPGGSLRLSCAASGFTFSIYSMNWVRQAPGKGLEWVSSIGSSGGTTYYADSVKGRFTISRDNSKNTLYLQMNSLRAEDTAVYYCAGSQWLYGMDVWGQGTTVTVSSGGSGGSDIQMTQSPSSLSASVGDRVTITCRSSQRIMTYLNWYQQKPGKAPKLLIFVASHSQSGVPSRFRGSGSETDFTLTISGLQPEDSATYYCQQSFWTPLTFGGGTKVEIKGGSGGSQVQLVQSGAEVKKPGASVKVSCKASGYTFTRYTMHWVRQAPGQGLEWMGYINPSRGYTNYNQKFKDRVTLTTDKSSSTAYMELSSLRSEDTAVYYCARYYDDHYSLDYWGQGTLVTVSSAAAEQKLISEEDLSAWSHPQFEK
B8: C0032 (Anti-oxMIF-scFv fused to an anti-CD3-scFv, BiTE) (bispecific antibody)
chain: DIQMTQSPSSLSASVGDRVTITCRSSQRIMTYLNWYQQKPGKAPKLLIFVASHSQSGVPSRFRGSGSETDFTLTISGLQPEDSATYYCQQSFWTPLTFGGGTKVEIKGGGGSGGGGSGGGGSEVQLLESGGGLVQPGGSLRLSCAASGFTFSIYSMNWVRQAPGKGLEWVSSIGSSGGTTYYADSVKGRFTISRDNSKNTLYLQMNSLRAEDTAVYYCAGSQWLYGMDVWGQGTTVTVSSGGGGSQVQLVQSGAEVKKPGASVKVSCKASGYTFTRYTMHWVRQAPGQGLEWMGYINPSRGYTNYNQKFKDRVTLTTDKSSSTAYMELSSLRSEDTAVYYCARYYDDHYSLDYWGQGTLVTVSSGGSGGSGGSGGSGGSDIQMTQSPSSLSASVGDRVTITCSASSSVSYMNWYQQKPGKAPKRLIYDTSKLASGVPSRFSGSGSGTDFTLTISSLQPEDFATYYCQQWSSNPFTFGQGTKLEIKAAAEQKLISEEDLSAWSHPQFEK
notes: also called anti-oxMIF/CD3 BiTE
B9: C0008 (full anti-oxMIF IgG, IgG1) (antibody, V domains shown)
VH: EVQLLESGGGLVQPGGSLRLSCAASGFTFSIYSMNWVRQAPGKGLEWVSSIGSSGGTTYYADSVKGRFTISRDNSKNTLYLQMNSLRAEDTAVYYCAGSQWLYGMDVWGQGTTVTVSS
VL: DIQMTQSPSSLSASVGDRVTITCRSSQRIMTYLNWYQQKPGKAPKLLIFVASHSQSGVPSRFRGSGSETDFTLTISGLQPEDSATYYCQQSFWTPLTFGGGTKVEIKR
notes: Monospecific control antibody; also called anti-oxMIF monospecific control antibody

What follows are binders tested against T1, Recombinant human MIF, immobilized (transforming MIF to oxMIF) (human, UniProt P14174 2-115) (assay: ELISA, immobilized recombinant human MIF (oxMIF), protein L-HRP detection, 4-parameter fit).
T1 construct: also called immobilized MIF (oxMIF); HuMIF
Method: Recombinant human MIF (1 μg/ml) diluted in PBS was immobilized into microwell plates (transforming MIF to oxMIF according to Thiele M. et al., 2015, J Immunol 2015; 195:2343-2352). After blocking, the bispecific antibodies were added to the plates at different concentrations. Bound bispecific antibodies were detected using protein L-HRP conjugate. Plates were developed by adding TMB and chromogenic reaction was stopped with H₂SO₄. OD was measured at 450 nm.
EC50 values of the binding curves, which reflect rough KD estimates, were calculated by 4-parameter fit and are shown in Table 5.

T1 sequence (P14174 2-115 limits assumed): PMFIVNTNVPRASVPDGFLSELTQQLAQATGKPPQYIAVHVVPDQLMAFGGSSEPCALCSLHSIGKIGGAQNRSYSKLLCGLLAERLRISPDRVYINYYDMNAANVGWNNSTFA

In order of rising EC50:
1. B5  0.3 nM
2. B6  0.3 nM
3. B7  1.9 nM
4. B4  2.3 nM
5. B1  3.4 nM
6. B8  4 nM
7. B2  4.6 nM
8. B3  4.6 nM

Each binder was assayed against T1, Recombinant human MIF, immobilized … (assay: SPR, Biacore T200, HuMIF immobilized on CM5 chip, single cycle kinetics, 1:1 Langmuir model).
Method: The affinity of the antibodies was determined using a Biacore™ T200 device. HuMIF was immobilized onto CM5 sensor chips and anti-oxMIF bispecific entities were injected at different concentrations in running buffer (HBS-EP plus 0.1% BSA) to generate single cycle kinetic profiles.

In order of rising Kd:
1. B5  0.61 nM
2. B6  1 nM
3. B4  2.3 nM
4. B8  4.3 nM
5. B7  4.8 nM
6. B1  5.9 nM
7. B2  7.2 nM
8. B3  9.4 nM

These binders were tested against T2, native CD3 on CD3-positive Jurkat T cells (UniProt P07766 23-207; P04234 22-171; P09693 23-182) (assay: flow cytometry on viable CD3+ Jurkat T cells, antibody at 70 nM, goat anti-human IgG (H+L) Alexa Fluor 488).
T2 construct: whole, on cells; also called functional CD3 (CD3+)
Method: CD3 positive Jurkat T-cells, which express functional CD3 (CD3+) were incubated with bispecific antibodies, C0008 (anti-oxMIF monospecific control antibody), a non-specific isotype control antibody (Isotype) at a concentration of 70 nM or without antibody (secondary ab only). Bound antibodies were detected by a goat anti-human IgG (H+L) Alexa-Fluor 488 conjugate (secondary antibody). 7AAD was used to label dead cells and samples were analysed by FACS.

T2 sequence (P07766 23-207, chain 1 of 3): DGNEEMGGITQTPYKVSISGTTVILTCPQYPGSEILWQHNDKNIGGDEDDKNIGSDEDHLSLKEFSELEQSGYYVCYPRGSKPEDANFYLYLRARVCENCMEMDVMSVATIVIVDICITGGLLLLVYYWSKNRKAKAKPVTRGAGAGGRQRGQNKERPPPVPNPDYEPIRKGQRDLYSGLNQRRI
T2 sequence (P04234 22-171, chain 2 of 3): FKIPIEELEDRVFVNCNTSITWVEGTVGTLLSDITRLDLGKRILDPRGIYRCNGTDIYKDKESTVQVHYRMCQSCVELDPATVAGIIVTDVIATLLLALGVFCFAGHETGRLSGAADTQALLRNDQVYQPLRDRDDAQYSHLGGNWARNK
T2 sequence (P09693 23-182, chain 3 of 3): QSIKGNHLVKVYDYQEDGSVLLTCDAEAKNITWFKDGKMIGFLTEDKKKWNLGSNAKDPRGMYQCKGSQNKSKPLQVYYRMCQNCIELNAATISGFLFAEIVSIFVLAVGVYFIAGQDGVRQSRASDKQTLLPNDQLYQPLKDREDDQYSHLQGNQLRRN

B2: binds.
B5: binds.
B6: binds.
B9: no binding (tested: 70 nM).
B8: binds.
